Reference: the supplement of paper PMC12042874
± gives the uncertainty stated by the source.

Assay: amyloid nucleation score (Sup35N fusion, yeast selection) (log enrichment); library NNK3; higher = more nucleation; inactive = no reads after selection
How it was run: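 Growth for 7 days at 30°C on medium lacking adenine and uracil followed a 24-hour induction with 100 μM copper sulfate of psi-negative yeast expressing peptides of 20 random codons fused to Sup35N. Input and output plasmid inserts were sequenced with Illumina, and sequences with under 100 input reads were excluded. Nucleation score is the DiMSum log enrichment of output over input reads, centred on the mode score of non-aggregating sequences.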

| Substance | amyloid nucleation score |
| --- | --- |
| MILNWARQRGIECMAYSRVW | inactive |
| MIMINVISQCKCAGWGGNRA | 3.36 ± 0.053 |
| MIMTMTAGFFLELLW | inactive |
| MIRLNNRARRNLLRLRVDRQ | inactive |
| MKRCTVFEPLPKRRLVMYLE | inactive |
| MKVNKLRTMPCNINWQFCLP | 0.819 ± 0.11 |
| MLCRPTGRGLDGQCERLTVR | inactive |
| MLDSRYGKMCRGEW | inactive |
| MLKSTKKSRGLYMVSYTFTG | inactive |
| MLLSVRRGSLWESRPRTWLM | 0.535 ± 0.22 |
| MLLVHNRTDIFLWIDLYNSL | inactive |
| MLPFTLMQPNVLFWMIDWED | inactive |
| MLQWVESLGGICITRSVLIL | inactive |
| MLSISFLYFATTVGVDVTLG | inactive |
| MMAFTVFISEQDYSGIIFYE | inactive |
| MMDSWYVVVRYLSTLYNCDI | inactive |
| MMGSVQLVHSIEYSCMHGTS | inactive |
| MMLFNSMWDIFCLMDGLH | inactive |
| MMLFNVPKICHRLWLNLHRH | inactive |
| MMLLGVRVED | inactive |
| MMYNVMVSSRLMRLCFSRRV | inactive |
| MMYRSRFGLKMLPGLQPAIA | inactive |
| MNCDDAVDWCFII | inactive |

| Substance | amyloid nucleation score |
| --- | --- |
| MNLDVWSFMSMFNSFRVWVQ | inactive |
| MNMGYFRFNL | inactive |
| MNRKVVANSGDRDGIVRTSS | 0.278 ± 0.43 |
| MNTSDSARKSRYRARG | inactive |
| MPGLAVFGCPRRCCGFRGLV | inactive |
| MPLYCNKMGCPLGKGMHMCH | inactive |
| MPPLNNCLDPYFLVCCNMVY | inactive |
| MPTTHASLSSSFLG | inactive |
| MPYMW | 0.73 ± 0.29 |
| MPYVSKVYHYRYT | inactive |
| MRAIMWFINKDLLLTCGDDS | inactive |
| MRCILTLFSTDIICVLSCKC | inactive |
| MRFADFCRGYFRRGSYPLGF | inactive |
| MRFLWCNVCL | 2.07 ± 0.078 |
| MRGINRIDLLPG | inactive |
| MRGRFLASPGWFTFRIFFVF | 0.836 ± 0.27 |
| MRISRAVHELWILNFVTKES | -0.52 ± 1.3 |
| MRMHALAVNIGCCYTCVVVT | 0.866 ± 0.099 |
| MRMVTSCTISF | inactive |
| MRSNMFSRAGNYGQSIKELT | inactive |
| MRSRGTLHYATDSLWSLGEP | inactive |
| MRTMISYMVRVVRTHTCFLD | inactive |
| MSCICGKPTAVCI | inactive |

| Substance | amyloid nucleation score |
| --- | --- |
| MSDWLDELVGSPMSKREVCR | inactive |
| MSELWWAPSFKYQLFSHFIK | inactive |
| MSKARFRWSDNTDPFFSVGQ | 0.196 ± 0.51 |
| MSLPSSSQAYSCRWTWPRPA | inactive |
| MSSACGWEEVIGCLEVMRIG | inactive |
| MSTLEMHYGPSFSCLYNMQD | 1.89 ± 0.065 |
| MSVYRYSKAVYARIEFTSRS | inactive |
| MSYINRAPFAMSGLFCAWFD | inactive |
| MTDDRWLRRRVSPCSVRRFS | inactive |
| MTFTCFVRFPTVRYNAKGCL | inactive |
| MTRVYLMNFVLQLASTSQDS | 2.54 ± 0.065 |
| MTVPTCHNDASARLMLRLLG | inactive |
| MTVTGPQYLPWGLRHNA | inactive |
| MTWGSNFSDNGYKLEIMCYQ | inactive |
| MVFEKGFSTNNRHGGHLDEQ | inactive |
| MVFSAICITHFTKI | inactive |
| MVGAPDV | inactive |
| MVGGVHCLSSVLRRWAAGRR | -0.676 ± 1.7 |
| MVKCQWGFRL | 1.33 ± 0.12 |
| MVKGGKDHSSVGPC | inactive |
| MVKLCALSCSIALDPIQTFK | 0.426 ± 0.19 |
| MVLGMYKQ | inactive |
| MVLRVLNYFINFCATVLAGS | inactive |

| Substance | amyloid nucleation score |
| --- | --- |
| MVLYRFCIVIHWTCTV | inactive |
| MVNTKTISYWPKDSQHLRV | inactive |
| MVQRSMKARILFCKVNFLCA | 1.16 ± 0.15 |
| MVRFMLFMK | inactive |
| MVVYKNYM | inactive |
| MWKDLVVCL | 0.175 ± 0.88 |
| MYEVVRVKYMVAQQFNISSE | inactive |
| MYGLHLNPALITVYFRGKGL | -0.018 ± 0.34 |
| MYRLVGHLTIHVVMVLAQWW | inactive |
| MYVYSYQVYNLTCARLAKK | inactive |
| MYYSSYR | inactive |
| NACVNEWRPKCQVSWGGPSF | -0.385 ± 0.93 |
| NADTYNRSDEKMTGRYWDRR | inactive |
| NARHFIRYATFCCQYASRCG | 0.928 ± 0.18 |
| NASNHSVSTRCVVDRG | inactive |
| NATIKIFTTIISDYQFGMR | 0.152 ± 0.3 |
| NAYCPPSLCVKRLYLFRMTK | inactive |
| NCCCLYP | 1.71 ± 0.091 |
| NCDCSIAEPESILRFESPRE | inactive |
| NCFMRLMVFAKRVIGCLQPP | 0.15 ± 0.43 |
| NCKMWRYKVESNCPGMICRC | inactive |
| NCMELLWCCSCSSVICVMHH | 2.96 ± 0.07 |
| NCRGPCFKSKCSLIPRYTFV | inactive |

| Substance | amyloid nucleation score |
| --- | --- |
| NCRVMEISIGKAKQSWNFVM | inactive |
| NCYNQYRSSWRLTCCLF | 3.34 ± 0.064 |
| NDASPLFSKGVLDFLSTKSL | inactive |
| NDASVLRNSPELSESFRGKW | inactive |
| NDGLAQSNIEIKDYRCRQNY | inactive |
| NDHLSCVRMVLHSMGCHKWS | -0.181 ± 0.88 |
| NDIMKTCFFNTYAYHLSVVM | inactive |
| NDMFRVSCSQNSESQYNLNG | inactive |
| NDNIDPTRVIQ | inactive |
| NDTFVY | inactive |
| NDYCPLYIGHVGRFHPAKDV | inactive |
| NELGEIAYGCGFRVVCRCMR | inactive |
| NFCFDSPLIFPDCQLG | inactive |
| NFFWFYWIWKSSGGYTGWLL | inactive |
| NFGQNCN | -0.48 ± 0.57 |
| NFGRAQSNACAENVFAIERG | inactive |
| NFMYTWKRSMFYSNCKH | inactive |
| NFQVDNVGSYS | inactive |
| NFSMCINRNKVPCVHLLDTL | inactive |
| NFSTRTGIITIGFCRVCGMR | 1.97 ± 0.096 |
| NFTRPLSWNYLR | inactive |
| NFVRRHWRWRGMSFSLVNSY | inactive |
| NFVVKCICWAYFPHVDGFYF | inactive |

| Substance | amyloid nucleation score |
| --- | --- |
| NFWFCLISYCESFSMISERG | inactive |
| NGFGSNNVGSGERLADVAVI | inactive |
| NGFRI | inactive |
| NGKLVFCWDKFIYVYRLTWW | inactive |
| NGLRRSVLGLRL | inactive |
| NGNNLIRVFVWYYDNS | 2.99 ± 0.08 |
| NGRNSRQTVIRIVSRWVVNH | inactive |
| NGTLSYCPDKELSTLVFLHY | inactive |
| NGVVMVKSRNVPADKSNCDG | inactive |
| NGYFLSQGGLLSLIMHFKIV | -0.041 ± 0.77 |
| NHCYLLL | inactive |
| NHLLSSSGSNGMLKLIRFIG | inactive |
| NHLSPMRTKLYLKETNPSSA | inactive |
| NIAIVW | inactive |
| NIHFSITAQ | inactive |
| NIIKSTVIY | inactive |
| NIIKTLAVRSGRRFRFLVRW | inactive |
| NIILCCAKVFKPYMSTMTTP | 1.98 ± 0.061 |
| NILEYYLLTGLYVAFLYLNR | inactive |
| NINRSPWLIGWGLPKLKRDH | inactive |
| NINSTFQRQVLSDCLVQWYM | inactive |
| NINVRTELVQRKGNILP | 0.213 ± 0.17 |
| NIRWMFNLYACRLLRLVHF | 0.44 ± 0.23 |

| Substance | amyloid nucleation score |
| --- | --- |
| NISWVAFMIVLHLDRLNMF | inactive |
| NIVERQDLLLGLANNWLHLT | inactive |
| NIVQYVWVDDWVFRCRCGAK | 3.15 ± 0.069 |
| NIWESAVPWVTDALVYKNRV | -0.323 ± 0.96 |
| NKHMGKQLAIAMAVRCAYSG | 0.326 ± 0.33 |
| NKNGSHL | inactive |
| NKYLMINLGYQGSKENDIGV | inactive |
| NLAFTNVKVWVWSFSLLLYC | inactive |
| NLAIL | inactive |
| NLCQSAGRFCWG | inactive |
| NLCSCDNWRRRRCASMWALV | inactive |
| NLDRLWTNQGFAFWIRTYVV | inactive |
| NLEFFCKDV | inactive |
| NLFSEFGMFNGKGPVGTSVG | inactive |
| NLHNVMRKFTQGFSGHKTKL | inactive |
| NLKLAWNRLSRMHWFLMNRS | inactive |
| NLLLFF | 1.82 ± 0.096 |
| NLMFVLHRTSWSNFCLKRKC | inactive |
| NLNGFYSRGVIFR | inactive |
